Experimental findings from patent US20240343761A1, “APELINERGIC MACROCYCLES AND USES THEREOF” (priority 2021, published 2024) are described below.

Read-outs that look alike come from different tables or passages of the source. Numbered stars: 1 amine (or outer) side, 2 acyl side, 3 side chain; on linkers, the order of the positions; unused ones are H or OH. Bridge positions count the residues as written; N and C are the ends. Square brackets hold non-standard residues; d marks the D form. Ends that are not written are not given here. * marks the point of attachment. cypTyr(OBn) = 3-cyclopentyl-O-benzyl-L-tyrosine, O=C([C@H](Cc1ccc(OCc2ccccc2)c(C2CCCC2)c1)N[*:1])[*:2]; cypY = 3-cyclopentyl-tyrosine, O=C([C@H](Cc1ccc(O[*:3])c(C2CCCC2)c1)N[*:1])[*:2]; Tyr(OBn) = O-benzyl-tyrosine, O=C([C@H](Cc1ccc(OCc2ccccc2)cc1)N[*:1])[*:2]; pent‑4‑enoyl = des-amino allylglycine (Ø = desamino analog), C=CCCC(=O)*; Rx = Nα-allyl-arginine, C=CCN([C@@H](CCCNC(=N)N)C(=O)[*:2])[*:1]; Alnb = Nγ-allyl-Nγ-nosyl-α,γ-diamino-butanoic acid; hArg = N=C(N)NCCCC[C@H](N)C(=O)O; dcypTyr(OBn) = not defined here; AllylGly = C=CC[C@H](N)C(=O)O; pGlu = O=C1CC[C@@H](C(=O)O)N1; Nle = CCCC[C@H](N)C(=O)O; AIH = not defined here; B1 = not defined here; B3 = not defined here

Assay [1] concerns the target T1, human APJ (transfected HEK293 cells, Gαi1 BRET assay) (human, UniProt P35414 1-380).
T1 sequence (looked up): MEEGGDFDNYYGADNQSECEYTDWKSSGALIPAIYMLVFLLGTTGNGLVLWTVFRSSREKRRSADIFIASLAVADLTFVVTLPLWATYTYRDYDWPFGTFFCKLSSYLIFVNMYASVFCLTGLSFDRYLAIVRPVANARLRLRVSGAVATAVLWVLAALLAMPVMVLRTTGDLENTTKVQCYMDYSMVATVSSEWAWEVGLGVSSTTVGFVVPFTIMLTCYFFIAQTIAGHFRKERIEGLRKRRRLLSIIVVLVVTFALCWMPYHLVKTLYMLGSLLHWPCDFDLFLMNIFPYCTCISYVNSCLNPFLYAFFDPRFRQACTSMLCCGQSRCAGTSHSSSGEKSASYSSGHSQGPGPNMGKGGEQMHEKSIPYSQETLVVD
Put plainly: cell-based or functional assay.

Assay [2] addresses T2, YFP-tagged human APJ receptor (human, UniProt P35414 1-380).
T2 construct: whole, on cells; also called hAPJ; APJ WT; not shown: YFP tag
T2 sequence (looked up): T1 sequence (looked up)
Put plainly: competitive radioligand binding, HEK293-hAPJ membranes.

In assay [3] the target is T1, human APJ (transfected HEK293 cells, …). Put plainly: cell-based or functional assay. This is another data set of the same source.
The target in assay [4] is T2, YFP-tagged human APJ receptor. Put plainly: competitive radioligand binding, HEK293-hAPJ membranes. This is another data set of the same source.
In assay [5] the target is T1, human APJ (transfected HEK293 cells, …). Put plainly: cell-based or functional assay. This is another data set of the same source.
Assay [6] concerns the target T2, YFP-tagged human APJ receptor. Put plainly: competitive radioligand binding, HEK293-hAPJ membranes. The source holds these as a separate data set.

Usually Ki stands for a dissociation constant, usually derived from enzyme kinetics or from competition with a known ligand.

In the case of Ac-KFRRQRPRLEHKKP[Nle]P[cypTyr(OBn)] (lactam 10-13) [Compound 63 (KT02-76)], the “EC50 Gαi1” value in assay [1] is 5.47 nM. Moreover, the affinity in assay [2] corresponds to a Ki of 0.25 nM.

Ac-KFRRQRPRLEHKKP[Nle]P[B3] (lactam 10-13; reading uncertain; also: B3 structure not given here) [Compound 69 (KT02-20)] came in with a Ki in assay [2] of 3 nM. For Guanidine-[AllylGly]RLS[AllylGly]KGP[Nle]PF (staple 1-5) [Compound 23 (KT01-121)], the “Gαi1 Emax (%)” value in assay [3] was determined as 103%. In assay [4], [pGlu]RKRLSDKGP[Nle]PF (lactam 3-7) [Compound 17 (KT01-106)] registered a Ki of 39 nM. Regarding Ac-KFRRQRPRLEHKKP[Nle]P[Tyr(OBn)] (lactam 10-13) [Compound 66 (KT03-02)], in assay [1], the “EC50 Gαi1” value was 21.7 nM. Besides, in assay [2], the affinity, expressed as Ki, was 1.6 nM. Regarding KRRE[Nle]CLHCRVPFP (lactam 1-4; disulfide 6-9) [Compound 79 (AM03-68)], the “EC50 Gail” value in assay [5] was 4 nM. In assay [6], the affinity corresponds to a Ki of 0.61 nM. On to H-[AllylGly]RLS[Alnb]KGP[Nle]PF (staple 1-5) [Compound 28 (KT01-135)], for which the “Gαi1 Emax (%)” value in assay [3] is 106%. On to [pGlu]R[AllylGly]RLS[Alnb]KGP[Nle]PF (staple 3-7) [Compound 16 (KT01-123)], for which, in assay [3], the “Gαi1 Emax (%)” value came to 102%. Still for that read-out and setting: the result for H-[AllylGly]RLS[AllylGly]KGP[dY] (staple 1-5) [Compound 45 (KT04-42b)] reads 100%. In the case of Ac-KFRRQRPRLEHKKP[Nle]P[cypY] (lactam 10-13) [Compound 64 (KT02-78)], the “EC50 Gαi1” value in assay [1] worked out at 19.4 nM. Also, in assay [2], the affinity corresponds to a Ki of 0.77 nM. As for Ac-KFRRQRPRLEHAKPAPF (lactam 10-13) [Compound 62 (KT02-62)], in assay [1], the “EC50 Gαi1” value was 33.4 nM.

B1: Compound 65 (KT02-99) (peptide)
peptide: Ac-KFRRQRPRLEHKKP[Nle]P[dcypTyr(OBn)]
modifications: lactam 10-13; reading uncertain; also: printed as Ac-K-F-R-R-Q-R-P-R-L-[E-H-K-K]-P-Nle-P-dcypTyrOBn
On to B1, for which the “EC50 Gαi1” value in assay [1] came to 73 nM. For the same molecule, in assay [2], the Ki was determined as 4.16 nM. In the case of [pGlu]R[hArg]SEPLHKRVPFP (lactam 5-9) [Compound 91 (KT03-17)], in assay [5], the “EC50 Gail” value is 4.3 nM. For the same molecule, the Ki in assay [6] was found to be 9.4 nM. In assay [4], [Rx]RLS[AIH]KGP[Nle]PF (staple 1-5; reading uncertain) [Compound 26 (KT01-120)] yielded a Ki of 382 nM.

B2: Compound 27 (KT01-111) (peptide)
peptide: [pent‑4‑enoyl]RLS[AIH]KGP[Nle]PF
modifications: staple 1-5; not fully specified; printed as Ø-c[X-R-L-S-AIH]-K-G-P-Nle-P-F; reading uncertain
For the molecule B2, in assay [4], the affinity, expressed as Ki, was 380 nM. On to [pGlu]R[AllylGly]RLS[AllylGly]KGP[Nle]PF (staple 3-7) [Compound 97], for which the “Gαi1 Emax (%)” value in assay [3] was 101%. Still for that read-out and setting: the result for H-[AllylGly]RLS[AllylGly]KGP[Nle]PF (staple 1-5) [Compound 20 (KT01-100)] reads 100%. As for Ac-KFRRQRPRLEHKKP[Nle]P[B1] (lactam 10-13; reading uncertain) [Compound 67 (KT02-18)], affinity in assay [2] was put at a Ki of 12 nM.
